Test results: publication PMC9268357 (Science (New York, N.y.), 2021)

Legend:
[1] = molecular target: T1, prefusion-stabilized SARS-CoV S ectodomain trimer (SARS-CoV, isolate , UniProt P59594, stabilised); assay: cell-based or functional assay
[2] = molecular target: T2, prefusion-stabilized MERS-CoV S ectodomain trimer (MERS-CoV, isolate not shown; stand-in …, UniProt K9N5Q8, stabilised); assay: cell-based or functional assay
[3] = molecular target: T1, prefusion-stabilized SARS-CoV S …; assay: SPR; S2P6 Fab fragment and S glycoproteins (fig. S1, G and H); settings: both partners purified
[4] = molecular target: T2, prefusion-stabilized MERS-CoV S …; assay: as above; settings: both partners purified

B1: S2P6 monoclonal antibody (antibody, V domains shown)
VH: EVQLVQSGAEVKKPGASVKVSCKASGYTFTSQYMHWVRQAPGQGLEWIGIINPSGVHTSYAQKFQGRVTLTRDTSTSTLYMELSSLRSEDTAVYYCARGSPKGAFDYWGQGTLVTVSS
VL: not shown
notes: also called S2P6 mAb; S2P6 IgG; copies: 2 + 2
neutralization of VSV pseudotyped with SARS-CoV S, IC50 [1]: 2.4 µg/mL | neutralization of VSV pseudotyped with MERS-CoV S, IC50 [2]: 17.1 µg/mL

B2: S2P6 Fab fragment (Fab, V domains shown)
VH: EVQLVQSGAEVKKPGASVKVSCKASGYTFTSQYMHWVRQAPGQGLEWIGIINPSGVHTSYAQKFQGRVTLTRDTSTSTLYMELSSLRSEDTAVYYCARGSPKGAFDYWGQGTLVTVSS
VL: not shown
Kd [3]: 7 nM | Kd [4]: 12 nM
